Source: patent US20230227572A1 (HEFEI TG IMMUNOPHARMA, published 2023)

Assays:
[1] = target: T1, recombinant human PVRIG-human IgG1 Fc fusion protein (human); test: SPR (Biacore), human PVRIG-human IgG1 Fc on chip, antibody in flow, 1:1 model
T1 construct: no linker is told; also called human PVRIG-Fc fusion protein
Protocol: The binding kinetics and dissociation equilibrium constant (KD) of the antibodies of the present disclosure to human PVRIG were determined using the surface plasmon resonance (Biacore) assay. Briefly, a CMS chip was coated with human PVRIG-human IgG1 Fc fusion protein, and after being blocked, antibody solutions of different concentrations passed through the CMS chip at a fixed flow rate and bound to antigen for 2 min, followed by transfer to dissociation buffer for 6 min for determination of the dissociation rate. The kinetics were analyzed using a 1:1 binding model.
Target sequence in this assay (chain, as listed by the source limits assumed): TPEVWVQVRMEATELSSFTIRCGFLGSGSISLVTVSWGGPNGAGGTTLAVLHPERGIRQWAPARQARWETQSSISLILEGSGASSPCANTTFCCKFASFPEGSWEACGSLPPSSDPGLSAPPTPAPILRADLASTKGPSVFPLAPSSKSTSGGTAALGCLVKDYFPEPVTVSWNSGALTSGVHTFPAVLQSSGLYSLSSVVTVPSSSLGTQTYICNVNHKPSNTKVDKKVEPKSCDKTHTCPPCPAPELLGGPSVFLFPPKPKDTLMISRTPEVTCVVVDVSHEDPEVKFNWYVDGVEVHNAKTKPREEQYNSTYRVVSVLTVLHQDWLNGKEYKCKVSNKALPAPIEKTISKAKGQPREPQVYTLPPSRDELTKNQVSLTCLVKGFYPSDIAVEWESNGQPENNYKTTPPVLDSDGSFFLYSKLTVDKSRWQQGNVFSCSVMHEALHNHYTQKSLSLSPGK

[2] = target: T1, recombinant human PVRIG-human IgG1 Fc …; test: ELISA, plate coated with human PVRIG-human IgG1 Fc at 1.0 µg/ml, HRP goat anti-mouse IgG, OD450
Protocol: The activity of the murine antibodies from different clones in binding to the human PVRIG-Fc fusion protein was evaluated by ELISA. The experimental procedure was as follows:
The recombinant human PVRIG-human IgG1 Fc fusion protein was diluted to 1.0 μg/ml in 1×PBS (phosphate buffer), the dilution was plated onto a 96-well ELISA plate overnight at 4° C. by 100 μl/well, the plate was washed 3 times with PBST (0.05% Tween20-PBS) and blocked with 1% BSA, followed by incubation at 37° C. for 2 h. The plate was washed 3 times with PBST, and murine antibodies (Antibody 1, Antibody 2, Antibody 3, or Antibody 4) diluted in multiple ratios were respectively added to set 8 concentrations, and the mixture was incubated at 37° C. for 1 h using mouse IgG1 (available from Biolegend) as a negative control at 100 μl/well. The plate was washed 3 times with PBST, and 100 μl of horseradish peroxidase (HRP)-labeled goat anti-mouse IgG antibody (available from BOSTER, 1:10,000 dilution) was added to each well, and the mixture was incubated at 37° C. for 1 h. After washing, 100 μl of TMB substrate solution was added to each well for developing for 10 to 15 min in the dark, 100 μl of stop solution (2M H2SO4) was added to each well, the solution was measured with a microplate reader immediately after the reaction stopped, and the absorbance at 450 nm (OD450) was read.

[3] = target: T1, recombinant human PVRIG-human IgG1 Fc …; test: flow cytometry blocking assay: antibody plus 10 µg/ml Fc fusion protein on 293T-human CD112 cells, AF647 anti-human IgG-Fc; y axis Human PVRIG-Fc fusion protein binding (%); blocked ligand: human CD112 on the cells
Protocol: The activity of murine antibodies from different clones in blocking the binding of the human PVRIG to its ligand CD112 was evaluated by flow cytometry. The experimental procedure was as follows:
The 293T-human CD112 cell line was harvested, and washed resuspended with 1×PBS to count the cells. […] The cell pellet was resuspended in 100 μl of 1×PBS, a AF647-labeled mouse anti-human IgG-Fc antibody (available from Biolegend) was added, the mixture was incubated at 4° C. for 30 min in the dark, followed by washing twice with 1×PBS and harvesting the cells by centrifugation at 3,500 rpm for 5 min. The cell pellet was resuspended with 200 ul of 1×PBS and measured using a flow cytometer (BD LSR II).

[4] = target: T2, human PVRIG protein on the cell membrane surface (human, UniProt Q6DKI7 41-326); test: flow cytometry on 293T-human PVRIG cells, AF647 goat anti-mouse IgG, percent positive cells
T2 construct: Also used here for the natural PVRIG on NKG cells and human lymphocytes; also called 293T-human PVRIG cell line; PVRIG on NKG cell line
T2 sequence: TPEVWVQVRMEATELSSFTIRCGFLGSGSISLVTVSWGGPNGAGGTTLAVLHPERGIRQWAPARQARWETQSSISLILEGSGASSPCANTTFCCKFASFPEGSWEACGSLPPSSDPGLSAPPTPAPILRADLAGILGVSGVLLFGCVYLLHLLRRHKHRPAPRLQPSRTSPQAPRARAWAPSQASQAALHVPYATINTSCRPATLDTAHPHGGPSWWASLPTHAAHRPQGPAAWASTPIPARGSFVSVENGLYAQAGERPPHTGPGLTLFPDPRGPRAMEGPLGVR
Protocol: The activity of murine antibodies from different clones in binding to human PVRIG protein on the cell membrane surface was evaluated by flow cytometry. The experimental procedure was as follows:
The 293T-human PVRIG cell line was harvested, washed with 1×PBS and resuspended, the cells were counted. Then […] were placed into each 1.5 ml Ep tube, the respective murine antibody (Antibody 1, Antibody 2, Antibody 3, or Antibody 4) was added at different concentrations, the mixture was incubated at 4° C. for 30 min, then washed with 1×PBS, and centrifuged at 3,500 rpm for 5 min to harvest the cells. The cell pellet was resuspended in 100 μl of 1×PBS, a AF647-labeled goat anti-mouse IgG antibody (available from Biolegend) was added, the mixture was incubated at 4° C. for 30 min in the dark, followed by washing twice with 1×PBS and harvesting the cells by centrifugation at 3,500 rpm for 5 min. The cell pellet was resuspended with 200 μl of 1×PBS and measured using a flow cytometer (BD LSR II).

[5] = target: T3, recombinant Macaca fascicularis PVRIG-human IgG1 Fc fusion protein (Macaca fascicularis; human); test: ELISA, plate coated with Macaca fascicularis PVRIG-human IgG1 Fc at 1.0 µg/ml, HRP goat anti-mouse IgG, OD450
T3 construct: Prepared 'in a similar manner' to the human PVRIG fusion
Protocol: The activity of the murine antibody in binding to the Macaca fascicularis PVRIG was evaluated by an ELISA method. The experimental procedure was as follows:
The recombinant Macaca fascicularis PVRIG-human IgG1 Fc fusion protein was diluted to 1.0 μg/ml in 1×PBS (phosphate buffer), the dilution was placed in a 96-well ELISA plate overnight at 4° C. by 100 μl/well, the plate was washed 3 times with PBST (0.05% Tween20-PBS) and blocked with 1% BSA, and the mixture was incubated for 2 h at 37° C. The plate was washed 3 times with PBST, and the murine antibody (Antibody 4) diluted in multiple ratios were respectively added to set 11 concentrations, and the mixture was incubated at 37° C. for 1 h using mouse IgG1 as a negative control at 100 μl/well. The plate was washed 3 times with PBST, 100 μl of horseradish peroxidase (HRP)-labeled goat anti-mouse IgG antibody (available from BOSTER, 1:10,000 dilution) was added to each well, and the mixture was incubated at 37° C. for 1 h. After washing, 100 μl of TMB substrate solution was added to each well for developing for 10 to 15 min in the dark, 100 μl of stop solution (2M H2SO4) was added to each well, the solution was measured with a microplate reader immediately after the reaction stopped, and the absorbance at 450 nm (OD450) was read. […]

T3 sequence (chain, as listed by the source limits assumed): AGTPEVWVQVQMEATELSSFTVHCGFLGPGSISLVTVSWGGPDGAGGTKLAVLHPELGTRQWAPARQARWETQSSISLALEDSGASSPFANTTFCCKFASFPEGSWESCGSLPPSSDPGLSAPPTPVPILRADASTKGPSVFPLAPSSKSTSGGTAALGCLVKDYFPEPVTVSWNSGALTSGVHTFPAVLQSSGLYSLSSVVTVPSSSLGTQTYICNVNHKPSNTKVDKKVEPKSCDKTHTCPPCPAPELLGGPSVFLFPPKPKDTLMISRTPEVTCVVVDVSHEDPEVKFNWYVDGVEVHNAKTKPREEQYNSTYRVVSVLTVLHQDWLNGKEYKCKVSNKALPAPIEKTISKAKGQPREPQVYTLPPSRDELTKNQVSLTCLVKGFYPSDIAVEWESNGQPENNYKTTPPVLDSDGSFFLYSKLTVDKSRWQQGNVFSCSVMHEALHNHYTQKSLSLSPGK

Kd [1]: ≤ 4.1 pM
koff [1]: ≤ 1e-06 s⁻¹
kon [1]: 244000 M⁻¹ s⁻¹
EC50 (read off the curve) [2]: ~0.02 µg/mL
IC50 (read off the curve) [3]: ~3 µg/mL
EC50 (read off the curve) [4]: ~0.01 µg/mL
EC50 (read off the curve) [5]: ~0.04 µg/mL
B1: Antibody 4 (antibody, V domains shown)
VH: QVQLQQSGAELVKPGASVKISCKATGYTFSSFSIEWVKQRPGHGLAWIGEILPGSNSTNYNEKFKGKATFTADTSSNTAYMQLSSLTSEDSAVYYCSSYWFAYWGQGTLVTVSA
VL: DIVMTQSPSSLSVSAGEKVTMSCKSSQSLLNSGNQKNYLAWYQQKPGQPPKLLIYGASTRESGVPDRFTGSGSGTDFTLTISSVQAEDLAVYYCQNAHSYPPTFAAGTKLELK
notes: Murine monoclonal antibody from hybridoma ascites; Used AF647-labelled in several flow cytometry assays; also called murine antibody (Antibody 4); murine Antibody 4
